Patent US20220249597A1 (Johns Hopkins, published 2022)
Blank lines part the entries; values can stand above or below the binder they belong to.

Target: T1, endogenous MIF (macrophage migration inhibitory factor) in HeLa cell lysates (human, UniProt P14174 2-115)
T1 construct: Endogenous protein in lysate, detected by western blot with an anti-MIF antibody; also called MMIF; PAAN
Assay: pull-down of AIF mutants, western blot with anti-MIF antibody

T1 sequence (P14174 2-115 limits assumed): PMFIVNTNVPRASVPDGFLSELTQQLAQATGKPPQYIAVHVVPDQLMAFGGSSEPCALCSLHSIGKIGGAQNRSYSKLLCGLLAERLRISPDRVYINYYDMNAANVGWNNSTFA

- binding result: no binding
B1: AIFA567-592 (full length AIF with aa567-592 deleted) (other, mouse, UniProt Q9Z0X1 1-612, looked up)
chain: MFRCGGLAGAFKQKLVPLVRTVYVQRPKQRNRLPGNLFQQWRVPLELQMARQMASSGSSGGKMDNSVLVLIVGLSTIGAGAYAYKTIKEDQKRYNERVMGLGLSPEEKQRRAIASATEGGSVPQIRAPSHVPFLLIGGGTAAFAAARSIRARDPGARVLIVSEDPELPYMRPPLSKELWFSDDPNVTKTLQFRQWNGKERSIYFQPPSFYVSAQDLPNIENGGVAVLTGKKVVHLDVRGNMVKLNDGSQITFEKCLIATGGTPRSLSAIDRAGAEVKSRTTLFRKIGDFRALEKISREVKSITVIGGGFLGSELACALGRKSQASGIEVIQLFPEKGNMGKILPQYLSNWTMEKVKREGVKVMPNAIVQSVGVSGGRLLIKLKDGRKVETDHIVTAVGLEPNVELAKTGGLEIDSDFGGFRVNAELQARSNIWVAGDAACFYDIKLGRRRVEHHDHAVVSGRLAGENMTGAAKPYWHQSMFWSDLGPDVGYEAIGLVDSSLPTVGVFAKATAQDNPKSATEQSGTGIRSESETESEASEITIPPSAPAVPQVPVEGEDYGKGVIFYDGEQHEDLNEVAKLFNIHED

- binding result: no binding
B2: AIFm567-592 (full length AIF with aa567-592 mutated into polyalanines) (other, mouse, UniProt Q9Z0X1 1-612, looked up)
chain: MFRCGGLAGAFKQKLVPLVRTVYVQRPKQRNRLPGNLFQQWRVPLELQMARQMASSGSSGGKMDNSVLVLIVGLSTIGAGAYAYKTIKEDQKRYNERVMGLGLSPEEKQRRAIASATEGGSVPQIRAPSHVPFLLIGGGTAAFAAARSIRARDPGARVLIVSEDPELPYMRPPLSKELWFSDDPNVTKTLQFRQWNGKERSIYFQPPSFYVSAQDLPNIENGGVAVLTGKKVVHLDVRGNMVKLNDGSQITFEKCLIATGGTPRSLSAIDRAGAEVKSRTTLFRKIGDFRALEKISREVKSITVIGGGFLGSELACALGRKSQASGIEVIQLFPEKGNMGKILPQYLSNWTMEKVKREGVKVMPNAIVQSVGVSGGRLLIKLKDGRKVETDHIVTAVGLEPNVELAKTGGLEIDSDFGGFRVNAELQARSNIWVAGDAACFYDIKLGRRRVEHHDHAVVSGRLAGENMTGAAKPYWHQSMFWSDLGPDVGYEAIGLVDSSLPTVGVFAKATAQDNPKSATEQSGTGIRSESETESEASEITIPPSAPAVPQVPVEGEDYGKGVIFYAAAAAAAAAAAAAAAAAAAAAAAAAADGEQHEDLNEVAKLFNIHED
